Test results taken from patent publication US20060026702A1, “Phosphoinositide 3-kinase mediated inhibition of GPCRs” (DUKE UNIVERSITY, priority 2002, published 2006).

Tests used:
PI3K = assay: βAR associated and endogenous PI3K activity (lipid kinase assay) in HEK-293 cells; conditions: HEAT (4 μg cDNA) co-transfected; 10 μM isoproterenol
Method: Lipid Kinase Assays—Cells were lysed in lysis buffer and 2 mg cytosolic extract was used for immunoprecipitation with either the C5/1 monoclonal antibody directed against βARK1, the anti-FLAG M2 monoclonal antibody (Sigma) or antibodies to p110γ, or p110β (Santa Cruz Biotechnology) and protein G-agarose. Sedimented beads were then washed once with 1 ml of lysis buffer, thrice with 1 ml of phosphate-buffered saline (1× phosphate-buffered saline, 1% NP-40 and 100 μM sodium orthovanadate), thrice with 1 ml of Tris/LiCl (100 mM Tris-HCl (pH 7.4), 5 mM LiCl and 100 μM sodium orthovanadate) and twice with TNE (10 mM Tris Cl (pH 7.4), 150 mM NaCl, 5 mM EDTA and 100 μM sodium orthovanadate). […] Autoradiography of dried plates was used to detect signals, and PIP was quantified by phosphorimaging. […] Values are expressed as fold increase/decrease relative to wild-type/control.
They used HEK-293 cells transfected with either FLAG epitope tagged β1AR or β2AR plasmids and monitored the association of PI3K to the receptor after agonist stimulation. […] The FLAG epitope was immunoprecipitated from 500 ug of protein from the cytosolic extracts and PI3K activity measured.
HEK-293 cells were transfected with FLAG β1AR (upper panel) and FLAG β2AR (lower panel). […] Cell extracts were used to immunoprecipitate β1AR and β2AR using the anti-FLAG antibody and PI3K activity was measured in the immunoprecipitates.

β-arrestin2-GFP = β-arrestin2-GFP recruitment to the membrane by confocal microscopy; assay type: cell-based; conditions: isoproterenol; co-expressed mutant protein
Method: Confocal Microscopy—Confocal microscopy was performed as previously described. […] Cells were split into 35 mm^2 dishes with glass bottoms for observation using a Zeiss LSM-510 confocal microscope. […] For analyses of the HEAT domain, HEK 293 cells were transfected with the plasmids containing cDNAs encoding either the β2AR-YFP (2 μg) or β2AR-YFP (2 μg) and HEAT domain (4 μg). Cells were plated onto glass bottom dishes for observation in the confocal microscope. […] Cells were permeablized with 0.1% Triton X-100 in phosphate-buffered saline for 20 min, incubated in 1% BSA in phosphate-buffered saline for 1 hr. Cells were washed with 1× phosphate-buffered saline and incubated with anti-HA or anti-FLAG monoclonal antibody (1:250) with 1% BSA in 1× phosphate-buffered saline for 1 hr. Cells were washed and incubated with goat anti-mouse IgG conjugated with Texas Red (1:500) (Molecular Probes) for 1 hr. Samples were visualized using single sequential line excitation filters at 488 and 568 nm and emission filter sets at 505-550 nm for GFP detection and 585 for Texas Red detection.
To exclude these possibilities cells were co-transfected with plasmids containing FLAG β2AR, β-arrestin2-GFP and either PI3Kγ or ΔPI3Kγ cDNAs, and were monitored for the recruitment of β-arrestin2-GFP using confocal microscopy. […] Marked redistribution of β-arrestin2-GFP to the membrane occurred within 2.5 minutes. […]

β2AR complex = assay: Recruitment of AP-2 adaptin and clathrin to the agonist-stimulated β2AR complex (immunoprecipitation, immunoblot); assay type: cell-based; conditions: HEAT co-transfected
Method: Immunoblotting and Detection—Immunoblotting and detection of PI3K, βARK1, HA-PI3Kγ, HA-ΔPI3Kγ, Myc-PI3Kα, FLAG-HEAT, PI3KΔHEAT-HA, FLAG-β2AR, HA-β2AR, β-adaptin and clathrin was carried out as previously described. Immunoprecipitating antibodies were added to 500 μg of cell lysate in lysis buffer followed by the addition of 35 μl of 1:1 Protein A- or G-agarose. Samples were rocked overnight at 4° C. then centrifuged at 12,000×g for 5 min. Immunoprecipitates were washed twice with lysis buffer, twice with 1×PBS and resuspended in 1×SDS-gel loading buffer. Proteins were resolved by SDS-polyacrylamide gel electrophoresis and blotted on to PVDF membrane (Bio-Rad). Blots were incubated with antibodies recognizing PI3K, Myc (Santa-Cruz), β-adaptin, clathrin heavy chain (BD Transduction Laboratories), HA (Roche Molecular Biochemicals) and FLAG (Sigma) at 1:2000 dilution and the βARK1 monoclonal antibody at 1:10,000 dilution. Blots were subsequently incubated with appropriate secondary antibody (1:2000 dilution) conjugated to horseradish peroxidase (Amersham Pharmacia Biotech) and detection was carried out using enhanced chemiluminescence. […]
The present inventors determined that βARK1-mediated localization of PI3K within the activated receptor complex is responsible for the generation of D-3 phosphatidylinositols necessary for the efficient recruitment of adaptin to the P2AR complex. […]

B1: HEAT: 197 amino acid HEAT domain of PI3Kγ, FLAG epitope-tagged (SEQ ID NO: 2), overexpressed in cells (protein, listed as Homo sapiens)
chain: MDYKDDDDKHPIALPKHQPTPDDRVRAEMPNQLRKQLEAIIATDTAEDKELLWHFRYESLKHPKAYPKLFSSVKWGQQEIVAKTYQLLARREVWDQSALDVGLTMQLLDCNFSDENVRAIAVQKLESLEDDDVLHYLLQLVQAVKFEPYHDSALARFLLKRGLRNKRIGHFLFWFLRSEIAQSRHYQQRFAVILEAYLRGCGTA
modifications: FLAG tag
FLAG-β2AR associated PI3K activity (PI3K): marked decrease | recruitment of β-arrestin2-GFP to the receptor/membrane after agonist (β-arrestin2-GFP): did not affect | recruitment of adaptin to the agonist-stimulated β2AR complex (β2AR complex; 10 μM isoproterenol 0-10 min): completely abolished | clathrin co-immunoprecipitated with the receptor after agonist (β2AR complex): attenuated
